Measurements from patent publication US20110158939A1 (published 2011).
Positions count from the first letter of the chain named. Names and notes keep the numbering of the source.

Key:
IL-4 receptor α chain [1] = target: T1, IL-4 receptor α chain (UniProt P24394 26-232, limits assumed); test: Biacore, pre- and post-nebulized samples (Aeroneb Pro), no difference between them
T1 construct: also called IL-4Rα; IL-4-receptor alpha chain
T1 sequence (looked up): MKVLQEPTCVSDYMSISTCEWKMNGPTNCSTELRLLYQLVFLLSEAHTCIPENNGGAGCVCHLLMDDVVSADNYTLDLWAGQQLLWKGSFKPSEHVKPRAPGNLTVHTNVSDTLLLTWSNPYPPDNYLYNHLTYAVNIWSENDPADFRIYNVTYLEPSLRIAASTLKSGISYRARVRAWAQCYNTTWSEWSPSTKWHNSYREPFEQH

IL-4 receptor α chain [2] = target: T1, IL-4 receptor α chain; test: Biacore, IL-4 receptor α chain immobilized (n = 7)
[3] = target: T2, wild type human Interleukin-4 (human, UniProt P05112 25-153); test: cell-based or functional assay
T2 sequence (looked up): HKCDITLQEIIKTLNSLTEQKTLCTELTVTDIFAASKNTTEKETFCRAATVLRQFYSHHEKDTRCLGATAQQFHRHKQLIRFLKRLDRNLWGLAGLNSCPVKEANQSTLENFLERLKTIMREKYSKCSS

IL-4 receptor α chain [4] = target: T1, IL-4 receptor α chain; test: Biacore, IL-4 receptor α chain immobilized

Kd (IL-4 receptor α chain [1]): ~0.1 nM
Kd (IL-4 receptor α chain [2]): 0.14 nM
TF-1/IL-4 proliferation assay, EC50 of inhibition of IL-4-induced cell proliferation [3]: 0.2 to 0.3 nM
TF-1/IL-4 proliferation assay, IC50, post nebulization (Pari LC Plus) [3]: 0.483 nM
TF-1/IL-4 proliferation assay, IC50, pre nebulization (Pari LC Plus) [3]: 0.459 nM
koff (IL-4 receptor α chain [4]): 0.0017 s⁻¹
kon (IL-4 receptor α chain [4]): 1.6e+07 M⁻¹ s⁻¹
B1: IL-4RA (mutant human IL-4 protein with the R121D/Y124D pair of substitutions) (ligand, UniProt P05112 25-153, looked up)
chain: T2 sequence (looked up) with R121D, Y124D
notes: mature; Substitution positions count on the mature 129-residue protein, not on the precursor; also called mhIL-4; IL-4 mutein
